Assay results from the nanobody polyreactivity screen of Harvey et al. (2022).

Test: yeast display, Sf9 membrane polyspecificity reagent, FACS + sequencing; frameworks hold sequencing errors
In short: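 A synthetic nanobody library was expressed on Saccharomyces cerevisiae BJ5465 by galactose induction for 36–48 hours. The library was stained for 1 hour at 4 °C with 10% biotinylated, detergent-solubilized Sf9 membrane reagent and enriched with streptavidin microbeads before FACS. Low and high (top ~1%) gates were set on anti-HA fluorescence for expression and streptavidin fluorescence for reagent binding, and each polyreactivity label reflects the gate of origin.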

Sequence | polyreactivity (PSR sort gate)
QVQLVESGGGLVQAGGSLRLSCAASGRIFYYNAMGWYRQAPGKERELVAAISWDGGSTYYADSVKGRFTISRDNAKNTVYLQMNSLKAEDTAVYYCAVDLYGTWYPTWFNYWGQGTQVTVSS | low polyreactivity
QVQLVESGGGLVQAGGSLRLSCAASGRIFYYNAMGWYRQAPGKERELVAAISYRGASTYYADSVKGRFTISRDNAKNTVYLQMNSLKPEDTAVYYCAAVTISKGFYPYDYWGQGTQVTVSS | high polyreactivity
QVQLVESGGGLVQAGGSLRLSCAASGRIFYYNAMGWYRQAPGKERELVATITGSGGSTYYADSVKGRFTISRDNAKNTVYLQMNSLKPEDTAVYYCNATRWYYDFYKLDYWGQGTQVTVSS | low polyreactivity
QVQLVESGGGLVQAGGSLRLSCAASGRIFYYNDLGWYRQAPGKERELVAAISGSGGSTYYADSVKGRFTISRDNAKNTVYLQMNSLKPEDTAVYYCSYYYWGQGTQVTVSS | low polyreactivity
QVQLVESGGGLVQAGGSLRLSCAASGRIFYYNGMGWYRQAPGKERELVASIPRTSGRTFYADSVKGRFTISRDKAKNTVYLQMNSLKPEDTAVYYCAAVGSRYVLGEYGYWGQGTQVTVSS | high polyreactivity
QVQLVESGGGLVQAGGSLRLSCAASGRIFYYNTMGWYRQAPGKEREFVAAITGSGGITYYADSVKGRFTISRDNAKNTVYLQMNSLKPEDTAVYYCAARTRYSIYRYYYWGQGTQVTVSS | high polyreactivity
QVQLVESGGGLVQAGGSLRLSCAASGRIFYYNTMGWYRQAPGKERELVAAITTNGGSTYYADSVKGRFTISRDNAKNTVYLQMNSLKPEDTAVYYCNRDRYPYYYAYNYWGQGTQVTVSS | low polyreactivity
QVQLVESGGGLVQAGGSLRLSCAASGRIFYYYAMGLYRQAPGKERELVAAISGSGGTTYNADSVKGRITISRDHAKNTVYLQMNSLKPEDTAVYYCAEVQYRYAREYYYWGQCTQVTVSS | high polyreactivity
QVQLVESGGGLVQAGGSLRLSCAASGRIFYYYAMGWYRQAPGKEREFVADISARGGSTYYADSVKGRFTISRDTAKNTVYLQMNSLKPEDTAVYYCAATTGLYTRYGYWGQGTQVTVSS | high polyreactivity
QVQLVESGGGLVQAGGSLRLSCAASGRIFYYYAMGWYRQAPGKEREIVAAISASGGSTYADSVKGRFTISRDNAKNTVYLQMNSLKPEDTAVYYCATVYYYTYAWLDLYGGYTFEYWGQGTQVTVSS | low polyreactivity
QVQLVESGGGLVQAGGSLRLSCAASGRIFYYYAMGWYRQAPGKERELVAAITWSGGSTYYADSVKGRFTISRDNAKNTVYLQMNSLKPEDTAVYYCAAEWAYWDEWSGDYYLLGYWGQGTQVTVSS | high polyreactivity
QVQLVESGGGLVQAGGSLRLSCAASGRIGRYAMGWYRQAPGKESELVAVITSGDSTYYADSVKGRFTITRDNAKNTVYFQMNSLKPEDTAVYYCAADSYRRWGILFTGNEYDSWGQGTQVTVSS | low polyreactivity
QVQLVESGGGLVQAGGSLRLSCAASGRIGYNAMGWYRQAPGKERELVAAISSRGGSTYYADSVKGRFTISRDNAKNTVYLQMNSLKPEDTAVYYCNADYEARTRLGEYDYWGQGTQVTVSS | high polyreactivity
QVQLVESGGGLVQAGGSLRLSCAASGRIHTYAMGWYRQAPGKERELVAAISFSGGSTYYADSVKGRFTISRDNAKNTVYLQMNSLKPEDTAVYYCAAGGGPNYFVDYGIRYDNWGQGTQVTVSS | low polyreactivity
QVQLVESGGGLVQAGGSLRLSCAASGRIIATNAMGWNRQAPGKERELVATITRSAGRTYYADSVKGRFTISRDNAKNTVYLHMNSLKPEDTAVYYCAASYWYTEPGYREYDYWGQGTQVTVSS | low polyreactivity
QVQLVESGGGLVQAGGSLRLSCAASGRIIGKNAMGWYRQAPGKERELVAAIRYNGGRTYYADSVKGRFTISRDNAKNTVYLQMNSLKPEDTAVYYCATRTYRVDPEFGYWGQGTQVTVSS | high polyreactivity
QVQLVESGGGLVQAGGSLRLSCAASGRIIGNYAMGWYRPAPGKERELVARISQSGGSTYYADSVKGRFTISRDHAKNSLYLQMNSLKPEDTAVYYCAKRGRYRYDRDNRYEYWGQGTQVNVSS | low polyreactivity
QVQLVESGGGLVQAGGSLRLSCAASGRIIGVNAMGWYRQAPGKERELVAAISWSGGSTYYADSVKGRFTISRDNAKNTVYLQMNSLKPEDTAVYYCATTYFYARRPRGDYWGQGTQVTVSS | high polyreactivity
QVQLVESGGGLVQAGGSLRLSCAASGRIIGYNAMGWYRQAPGKERELVASIRYSGGSTYYADSVKGRFTISRDNAKNTVYLQMNSLKPEDTAVYYCATRVTYRRRFDYWGQGTQVTVSS | high polyreactivity
QVQLVESGGGLVQAGGSLRLSCAASGRIIKPYAMGWYRQAPGKERELVAAISQSGGRTYYADSVKGRFTISRDNAKNTVYLQMNSLKPEDTAVYYCATRYVSSFGLHAQVWSYYYWGQGTQVTVSS | high polyreactivity
QVQLVESGGGLVQAGGSLRLSCAASGRIINYNVMGWYRQAPRKEMELVAAITRGGSTYYADSVKVRFTISRDNAKNTVYLQMNILKPEDTEVYYCSADTARRPRSYYYWGQGTQVTVSS | low polyreactivity
QVQLVESGGGLVQAGGSLRLSCAASGRIIPYNTMGWYRQAPGKERELVAAISQSDTGTHYADSVKGRFTISRDNAKNTVYLQMNSLKPEDTAVYYCAVDWGYSDDVPYEYWGQGTQVTVSS | low polyreactivity

Sequence | polyreactivity (PSR sort gate)
QVQLVESGGGLVQAGGSLRLSCAASGRIIRGYVMGWYRQAPRKEREMVAITIGAGRTYYADSVKGRFTISRDNAKNTVYLQMNSLIPEDTAVYYCAADTYSTSGYYYWGQGTQVTVSS | low polyreactivity
QVQLVESGGGLVQAGGSLRLSCAASGRIIRKNTMGWYRQAPGKERELVAAIRWSTTSTYYADSVKGRFTISRDNAKNTVYLQMHSLKPEDTAVYYCAARRRDSYGNIYDYWGQGTQVTVSS | high polyreactivity
QVQLVESGGGLVQAGGSLRLSCAASGRIIRWNAMGWYRQAPGKERELVAAITYSSGSTYYADSVKGRFTISRDNAKNTVYLQLNSLKPEDTAVYYCAAYSYGWDYSYDYWGQGTQVNVSS | low polyreactivity
QVQLVESGGGLVQAGGSLRLSCAASGRIISAYAMGWYRQAPGKERELVAAITGSGGSTYYADTVKGRFTISRDNAKKTVYLQMNSRKPEDTAVYYCAAKIDYPDARYFPYRYYYWGQGTQVTVSS | high polyreactivity
QVQLVESGGGLVQAGGSLRLSCAASGRIISRYAMGWYRQAPGKERELVAAISRRGGSTYYADSVKGRFTISRDNAKKTVYLQMNSLKPEDTAVYYCNADTGNRGYDYWGQGTQVTVSS | high polyreactivity
QVQLVESGGGLVQAGGSLRLSCAASGRIISYYAMRWYRQAPGKERELVAAITSAGGTNYADSVKARFTISRDNAKNTVYLQMNSLKPEDTAVYYCAADLYDWPLAWWEYFYWGQGTQVTVSS | low polyreactivity
QVQLVESGGGLVQAGGSLRLSCAASGRIIVDNAMGWYRQAPGKERELVAAITNGGSTSYADSVKGRFTISRDNAKNTVYLQMNSLKPEDTAVYYCNADEDLRGYDYWGQGTQVTVSS | low polyreactivity
QVQLVESGGGLVQAGGSLRLSCAASGRIIVLYAMGWSRQAPGKERELVASIRSGGSTNYADSVKGRFTISRDNAKNTVYLQMNSLKPEETAVYYCAARPDHKRYDYWGQGTQVTVSS | low polyreactivity
QVQLVESGGGLVQAGGSLRLSCAASGRIIYDKAMGWYRQAPGKERELVAAISRSGRTYYADSVKGRFTISRDNAKNTVYLQMNSLKPEDSAVYYCNARTLTVLEFDYWGQGTQVTVSS | low polyreactivity
QVQLVESGGGLVQAGGSLRLSCAASGRIIYENAMGWYRQAPGKEREFVAAITGSGGSTYYADSVKGRFTISRDNAKNTVYLQMISLKPEDTEVYYCAAPLSSYWVYIVRYGYDYWGQGTQVTVSS | low polyreactivity
QVQLVESGGGLVQAGGSLRLSCAASGRIIYGYAMGWYRQEPGKERELVAAITATYYGDSVKGRFTISRDNAKNTVYLQMNSLKPEDTAVYYCNAYLCPKQPLSPPDPTFEGGYWGQCTQVTVSS | low polyreactivity
QVQLVESGGGLVQAGGSLRLSCAASGRIIYNYAMGWYRQAPGKERELVAAITRSGGSTYYADSVKGRFTISRDNAKNTVYLQMNSLKPEDTAVYYCNATRGFGPPYFYWGQGTQVTVSS | high polyreactivity
QVQLVESGGGLVQAGGSLRLSCAASGRIIYPYVMGWYRQAHGKERELVAAITRSGDRTYYADSVKGRFTISRDNAKNTVYLQMNSLKPEDTAVYYCAATNVRGVYYWGQGTQVTVSS | high polyreactivity
QVQLVESGGGLVQAGGSLRLSCAASGRIIYYNAMGWYRQAPGKERDLVARISSGGSTNYADSVKGRFTFSRDNAKNTVYLQMISLKPEDTAGDYCAVAKGGLAWGVGRAGRYDYWGQGTQVTLSS | low polyreactivity
QVQLVESGGGLVQAGGSLRLSCAASGRILDINTMRGYRHPPGKERELVAAITWSGVSTYYADSVKGRFTISRDNAKNTVYLQMNSLKPEDTAVYYCAARPYYTWRYLPTNSGDYWGQGTQETVSS | low polyreactivity
QVQLVESGGGLVQAGGSLRLSCAASGRILDYNAMGWYRPAPGKERELVAAITRRGGSTYYADSVKGRFTISRDNAKNTVYLQMNSLKPEDTAVYYCNARWSTTAHTRFGYWGQGTQVTVSS | low polyreactivity
QVQLVESGGGLVQAGGSLRLSCAASGRILDYNAMGWYRQAPGKERELVAAITYTGGDTYYADSVKGRFTISRDNAKNTVYLQMNSLKPEDTAVYYCSADFGPYYRFDYWGQGTQVTVSS | low polyreactivity
QVQLVESGGGLVQAGGSLRLSCAASGRILFGYAMGWYRQAPGKERELVADITSTGSTNYADSVKGRFTISRDNAKNTVYLQMNSLKPEDTAVYYCNARRESYYQRYRVDYWGQGTQVNVSS | low polyreactivity
QVQLVESGGGLVQAGGSLRLSCAASGRILFRYGMGWYRQAPGKERELVARISWSGGNTHYADSVKGRFTISRDNAKNTVYLQMNSLKPDDTAVYYCNAYYTYWYPRYDYWGQGTQVTVSS | low polyreactivity
QVQLVESGGGLVQAGGSLRLSCAASGRILGDNVMGWYRQAPGKERELVAAISSGSGSTYYADSVKGRFTISRDNAKNTVYLQMNSLKPEDTAVYYCAAGPYIYPRYDYWGQGTQVTVSS | low polyreactivity
QVQLVESGGGLVQAGGSLRLSCAASGRILGDYAMGWYRQAPGKEREFVAASDYNGGSTNYADSVKGRFTISRDNAKNTVYLQMNSLKPEETAVYYCAAPGFPSRNGFGYWGQGTQVTVSS | low polyreactivity
